# Experimental data as given in patent US20100173800.
# Biological target: MuA transposase (bacteriophage Mu) (UniProt P07636)
# Assay: cell_activity
# Conditions: HeLa electroporation; linear transposon about 100 cfu/ug; 5 bp target duplication in sequenced clones (Table 1)
# MuA transposase (bacteriophage Mu), sequence (P07636 whole entry): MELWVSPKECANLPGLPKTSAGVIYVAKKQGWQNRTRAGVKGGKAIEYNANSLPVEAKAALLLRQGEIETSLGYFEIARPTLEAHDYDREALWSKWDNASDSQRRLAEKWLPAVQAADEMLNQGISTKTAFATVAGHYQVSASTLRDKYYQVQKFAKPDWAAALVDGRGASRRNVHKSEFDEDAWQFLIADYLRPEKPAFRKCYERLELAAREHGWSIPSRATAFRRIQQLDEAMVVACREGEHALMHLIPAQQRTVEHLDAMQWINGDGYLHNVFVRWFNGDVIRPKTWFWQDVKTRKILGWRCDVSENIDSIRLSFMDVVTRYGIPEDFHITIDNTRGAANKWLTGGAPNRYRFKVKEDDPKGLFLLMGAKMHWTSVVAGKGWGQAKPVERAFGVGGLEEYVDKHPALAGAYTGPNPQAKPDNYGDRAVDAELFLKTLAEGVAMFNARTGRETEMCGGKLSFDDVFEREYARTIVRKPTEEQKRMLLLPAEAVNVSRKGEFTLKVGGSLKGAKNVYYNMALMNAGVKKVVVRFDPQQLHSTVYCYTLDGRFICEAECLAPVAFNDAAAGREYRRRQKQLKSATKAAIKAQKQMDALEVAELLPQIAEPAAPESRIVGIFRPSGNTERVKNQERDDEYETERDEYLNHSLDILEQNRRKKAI
substance,measurement,value
Kan/Neo-Mu transposon (Kan/Neo-LoxP-Mu 2135 bp or Kan/Neo-p15A-Mu 2795 bp),activity,2400 cfu/µg DNA
